In the supplement of paper PMC10126150:
± gives the standard deviation of the averaged measurements.

Tested on: ATP
Assay: switch fluorescence ratio, 500 uM ATP over buffer (Cy3 cluster intensity, sum of 5 cycles each) (fold (ratio)); higher = stronger signal-on switching upon ATP binding; sequences stand for … in TCGTCGGCAGCGTCAGATGTGTATAAGAGACAGTTTTTTTTTTTTTTTTTTTTTTTTT…TC
Details: aptamer strand: ATP DNA aptamer (quencher-CACCTGGGGGAGTATTGCGGAGGAAGG + anchor), 100 nM annealed; ATP concentration: 500 uM
Outline: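 Per cluster, summed Cy3 intensity from the target cycles was divided by that from the buffer cycles to give the fluorescence ratio, then averaged per switch-domain sequence. Clusters outside 100-1000 RFU were excluded. The Cy3-labelled switching-strand clusters, on a modified Illumina MiSeq flow-cell, were annealed to 100 nM quencher-labelled ATP aptamer and imaged in selection buffer, then after 15 min with 500 uM ATP at 22 °C, for five cycles with NaOH stripping and re-annealing between them.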
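Further: ATP exposure 15 min at 22 °C before imaging.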

| Sequence | switch fluorescence ratio |
| --- | --- |
| TTAGGAGGGT | 0.965 ± 0.037 |
| TTAGGATAGT | 0.998 ± 0.027 |
| TTAGGATCGC | 1.02 ± 0.057 |
| TTAGGATGGC | 1.2 ± 0.28 |
| TTAGGATGTT | 1.0069 ± 0.00069 |
| TTAGGCCGGG | 0.998 ± 0.041 |
| TTAGGCGTTC | 0.9892 ± 0.0096 |
| TTAGGCTTGT | 0.996 ± 0.02 |
| TTAGGGACGT | 1.01 ± 0.026 |
| TTAGGGATTG | 1 ± 0.03 |
| TTAGGGCATT | 1.11 ± 0.2 |
| TTAGGGGAGC | 0.976 ± 0.021 |
| TTAGGGGAGT | 1.02 ± 0.066 |
| TTAGGGGCTT | 1.02 ± 0.033 |
| TTAGGGGGCC | 1.07 ± 0.035 |
| TTAGGGGGT | 0.976 ± 0.059 |
| TTAGGGGTAT | 0.996 ± 0.05 |
| TTAGGGGTGT | 1.01 ± 0.022 |
| TTAGGGTGTA | 1.01 ± 0.046 |
| TTAGGGTTGG | 0.99 ± 0.034 |
| TTAGGTGTCC | 1.08 ± 0.057 |
| TTAGGTGTCT | 0.998 ± 0.071 |
| TTAGGTTACT | 1.028 ± 0.0039 |

| Sequence | switch fluorescence ratio |
| --- | --- |
| TTAGGTTTGG | 1.05 ± 0.15 |
| TTAGTAAAGA | 1.02 ± 0.013 |
| TTAGTAATGT | 1.06 ± 0.072 |
| TTAGTAGCTA | 1.01 ± 0.013 |
| TTAGTATATA | 0.9946 ± 0.0059 |
| TTAGTATCGA | 0.966 ± 0.029 |
| TTAGTATTTT | 1.02 ± 0.087 |
| TTAGTCAATT | 0.97 ± 0.0044 |
| TTAGTCAGGG | 1.02 ± 0.024 |
| TTAGTCCCCG | 1.02 ± 0.038 |
| TTAGTGAAGT | 1 ± 0.011 |
| TTAGTGATAC | 2.49 ± 0.42 |
| TTAGTGTACT | 1.07 ± 0.038 |
| TTAGTTAAAT | 1.002 ± 0.0013 |
| TTAGTTAGTT | 0.98 ± 0.016 |
| TTAGTTGA | 0.999 ± 0.015 |
| TTAGTTGAGA | 1 ± 0.045 |
| TTAGTTGGTA | 0.987 ± 0.001 |
| TTAGTTTATC | 1.02 ± 0.027 |
| TTAGTTTCTG | 0.984 ± 0.046 |
| TTAGTTTTCG | 1.01 ± 0.02 |
| TTATAAATAC | 1.91 ± 0.7 |
| TTATAAGACT | 1.044 ± 0.0064 |

| Sequence | switch fluorescence ratio |
| --- | --- |
| TTATAAGTGG | 0.9907 ± 0.0072 |
| TTATAATAGG | 1.02 ± 0.032 |
| TTATAATATG | 0.9846 ± 0.0035 |
| TTATAATGCC | 0.997 ± 0.078 |
| TTATACAGTG | 1 ± 0.031 |
| TTATACATGT | 0.973 ± 0.055 |
| TTATACCAAG | 1.03 ± 0.023 |
| TTATAGATGG | 0.971 ± 0.077 |
| TTATAGGGCC | 1 ± 0.025 |
| TTATAGTATG | 0.99 ± 0.043 |
| TTATAGTATT | 0.957 ± 0.044 |
| TTATAGTGTT | 0.994 ± 0.012 |
| TTATATATCA | 1.01 ± 0.013 |
| TTATATCCTG | 0.974 ± 0.038 |
| TTATATTGAT | 1.017 ± 0.0029 |
| TTATATTTGA | 0.98 ± 0.015 |
| TTATCACACT | 1.02 ± 0.043 |
| TTATCAGGTT | 1 ± 0.031 |
| TTATCAGTTT | 1.03 ± 0.062 |
| TTATCATACG | 1.03 ± 0.024 |
| TTATCATCTT | 1.01 ± 0.032 |
| TTATCCACGA | 1.03 ± 0.033 |
| TTATCCAGGA | 1.006 ± 0.0093 |

| Sequence | switch fluorescence ratio |
| --- | --- |
| TTATCCGAGA | 1.04 ± 0.019 |
| TTATCGGCGC | 0.999 ± 0.014 |
| TTATCGGGCT | 1.02 ± 0.023 |
| TTATCGGGGT | 1.019 ± 0.008 |
| TTATCGGTCT | 0.9849 ± 0.0065 |
| TTATCGGTTG | 1.03 ± 0.043 |
| TTATCGTGTC | 1.02 ± 0.023 |
| TTATCTAGGA | 1 ± 0.028 |
| TTATGAAGTT | 0.996 ± 0.014 |
| TTATGAATAT | 0.9824 ± 0.005 |
| TTATGAATGC | 0.999 ± 0.055 |
| TTATGACAGG | 0.993 ± 0.022 |
| TTATGAGATA | 0.996 ± 0.035 |
| TTATGAGGAC | 1.03 ± 0.056 |
| TTATGAGGCA | 0.978 ± 0.026 |
| TTATGATAGG | 1.016 ± 0.0079 |
| TTATGCCGGT | 1.02 ± 0.068 |
| TTATGCTGTT | 1 ± 0.011 |
| TTATGGAAGT | 0.989 ± 0.025 |
| TTATGGAATT | 1.01 ± 0.044 |
| TTATGGAGCA | 1.09 ± 0.09 |
| TTATGGAGTT | 0.987 ± 0.01 |
| TTATGGCAGA | 1.009 ± 0.01 |

| Sequence | switch fluorescence ratio |
| --- | --- |
| TTATGGCGGT | 1.063 ± 0.0057 |
| TTATGGCTTC | 0.993 ± 0.029 |
| TTATGGGAGT | 0.966 ± 0.026 |
| TTATGGGCGT | 1.02 ± 0.02 |
| TTATGGGGAT | 0.988 ± 0.019 |
| TTATGGGTAA | 1.03 ± 0.034 |
| TTATGGGTTG | 1.002 ± 0.0039 |
| TTATGGTACA | 0.98 ± 0.019 |
| TTATGTATAT | 1.007 ± 0.0069 |
| TTATGTCGAA | 0.98 ± 0.017 |
| TTATGTCGAG | 0.978 ± 0.034 |
| TTATGTCTTG | 1.01 ± 0.019 |
| TTATGTGGGC | 0.97 ± 0.022 |
| TTATGTTTG | 1.012 ± 0.0031 |
| TTATGTTTTA | 0.9965 ± 0.0046 |
| TTATTAATCG | 0.963 ± 0.081 |
| TTATTAATGT | 1.02 ± 0.021 |
| TTATTAGACG | 0.976 ± 0.059 |
| TTATTATAGA | 0.998 ± 0.021 |
| TTATTCCCAG | 1.016 ± 0.0014 |
| TTATTCCTTT | 0.978 ± 0.042 |
| TTATTCGGGG | 0.968 ± 0.054 |
| TTATTCGTTT | 0.98 ± 0.03 |

| Sequence | switch fluorescence ratio |
| --- | --- |
| TTATTGAATT | 0.998 ± 0.045 |
| TTATTGACGA | 0.992 ± 0.021 |
| TTATTGATTT | 1.017 ± 0.0021 |
| TTATTGCTTT | 1 ± 0.036 |
| TTATTGGGCA | 1.04 ± 0.021 |
| TTATTGGGTC | 1.002 ± 0.01 |
| TTATTGGTAA | 1.0091 ± 0.00034 |
| TTATTGTAAT | 1.029 ± 0.0099 |
| TTATTGTGCG | 1.03 ± 0.034 |
| TTATTTATCG | 0.987 ± 0.026 |
| TTATTTATTC | 1.03 ± 0.037 |
| TTATTTGGTC | 1 ± 0.056 |
| TTATTTGTTA | 1.01 ± 0.041 |
| TTATTTTGGG | 0.99 ± 0.037 |
| TTCAAAATCT | 1.04 ± 0.019 |
| TTCAAAGACT | 1.02 ± 0.049 |
| TTCAAATCCC | 1.005 ± 0.0094 |
| TTCAACTGGT | 0.996 ± 0.022 |
| TTCAAGCAAG | 1.15 ± 0.015 |
| TTCAAGGAGT | 1.028 ± 0.0017 |
| TTCAAGTGTA | 1.01 ± 0.022 |
| TTCAATCTGT | 0.968 ± 0.064 |
| TTCAATGTTT | 0.978 ± 0.049 |

| Sequence | switch fluorescence ratio |
| --- | --- |
| TTCACAACCT | 1.77 ± 0.36 |
| TTCACACTA | 1.07 ± 0.044 |
| TTCACCCGTC | 0.971 ± 0.023 |
| TTCACCGGCA | 1.079 ± 0.0089 |
| TTCACGCTAG | 1.0378 ± 0.00056 |
| TTCACGGGTC | 1.06 ± 0.06 |
| TTCACTCTTT | 1.017 ± 0.0099 |
| TTCAGCGATG | 1.024 ± 0.0081 |
| TTCAGCTTGG | 0.99 ± 0.015 |
| TTCAGGATGG | 1.02 ± 0.017 |
| TTCAGGGCGC | 1.03 ± 0.053 |
| TTCAGGGCTT | 0.986 ± 0.036 |
| TTCAGGGGCA | 1.08 ± 0.033 |
| TTCAGGGGGC | 1.02 ± 0.014 |
| TTCAGGGGTA | 1.02 ± 0.033 |
| TTCAGGGGTT | 1.04 ± 0.068 |
| TTCAGGTATG | 1.01 ± 0.028 |
| TTCAGGTGGC | 1.18 ± 0.17 |
| TTCAGGTGTG | 1.142 ± 0.0073 |
